T1: recombinant human TL1A-his (processed secreted human TL1A with an N-terminal his-tag) (human, UniProt O95150 72-251)
T1 construct: also called recombinant histidine tagged human TL1A; histidine-tagged human TL1A
T1 sequence: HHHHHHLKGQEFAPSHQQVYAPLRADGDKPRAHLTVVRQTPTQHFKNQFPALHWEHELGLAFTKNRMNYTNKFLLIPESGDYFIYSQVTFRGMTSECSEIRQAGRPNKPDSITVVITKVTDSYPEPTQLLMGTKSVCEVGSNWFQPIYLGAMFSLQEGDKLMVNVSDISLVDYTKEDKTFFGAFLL

T2: extracellular part of rat (ratus norvegicus) TL1A protein (rat, UniProt Q8K3Y7 61-252)
T2 construct: also called rat TL1A
T2 sequence: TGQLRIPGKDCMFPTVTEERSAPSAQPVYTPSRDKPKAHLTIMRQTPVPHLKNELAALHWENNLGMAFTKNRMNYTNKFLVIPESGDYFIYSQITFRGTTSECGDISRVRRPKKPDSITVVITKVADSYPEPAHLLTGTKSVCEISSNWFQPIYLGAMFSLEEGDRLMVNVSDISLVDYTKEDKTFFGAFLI

T3: extracellular part of human (homo sapiens) TL1A protein (human, UniProt O95150 57-251)
T3 construct: also called human TL1A
T3 sequence: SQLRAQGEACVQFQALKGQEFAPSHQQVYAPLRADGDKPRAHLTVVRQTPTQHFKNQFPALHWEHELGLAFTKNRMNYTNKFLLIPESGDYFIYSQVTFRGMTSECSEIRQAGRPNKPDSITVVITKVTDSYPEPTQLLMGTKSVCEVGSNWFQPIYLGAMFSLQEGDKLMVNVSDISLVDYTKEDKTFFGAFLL

T4: extracellular part of cynomologus monkey (macaca fascicularis) TL1A protein (cynomolgus monkey (macaca fascicularis), UniProt O95150 57-251 (human entry))
T4 construct: also called cyno TL1A; cynomologus monkey TL1A
T4 chain: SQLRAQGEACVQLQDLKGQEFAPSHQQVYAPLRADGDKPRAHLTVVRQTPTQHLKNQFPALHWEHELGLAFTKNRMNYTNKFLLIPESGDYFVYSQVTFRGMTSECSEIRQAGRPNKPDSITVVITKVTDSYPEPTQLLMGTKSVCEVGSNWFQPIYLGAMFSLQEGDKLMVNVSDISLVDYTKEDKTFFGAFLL


How the values were obtained:
[1] = target: extracellular part of mouse (mus musculus) TL1A protein (mouse); assay: ELISA on coated extracellular part of TL1A (2 µg/mL), dose dilution of chimeric 5G6, HRP anti-human IgG
[2] = target: T1, recombinant human TL1A-his (processed …); assay: SPR (BIAcore 2000), antibody captured on protein-A, his-tagged human TL1A as analyte
Method: Kinetic binding affinity constants (KD) were measured on protein-A captured antibody using recombinant histidine tagged TL1A as analyte. Measurements were conducted on a BIAcore 2000 (GE Healthcare—BIAcore, GE Healthcare Europe GmbH, Glattbrugg, Switzerland) at room temperature, and analyzed with the BiaEvaluation software (BIAcore; v4.1. GE Healthcare Europe GmbH).
Following this capture step, the recombinant histidine tagged human TL1A was injected at different concentrations (1.25 to 125 nM) on the flow-path 1 and 2 (flow-path 1 being used as reference) at a 30 μl/min flow rate. After each binding event, surface was regenerated with glycine buffer pH 1.5 injected for 20 sec (30 μL/min).
Measurements (sensorgram: fc2-fc1) were best fitted with a 1:1 analyte model without mass transfer. To account for the experimental variations in protein-A captured antibody at the beginning of each measurement, the Rmax value was set to local in all fits. Dissociation times were of at least 300-600 seconds. Measurements were performed in duplicate and included zero-concentration samples for referencing. The Chi2 value represents the sum of squared differences between the experimental data and reference data at each point; while the plots of residuals indicate the difference between the experimental and reference data for each point in the fit. Both Chi2 and residual values were used to evaluate the quality of a fit between the experimental data and individual binding models.

[3] = target: T2, extracellular part of rat (ratus …); assay: ELISA on coated extracellular part of TL1A (2 µg/mL), dose dilution of chimeric 5G6, HRP anti-human IgG
Method: (§1) The reactivity of the parental 5G6 antibody (produced as a chimeric antibody with Human Fc) on the extracellular part of TL1A from diverse species was tested by ELISA. The extracellular part of TL1A protein corresponding to human (homo sapiens), rat (ratus norvegicus), mouse (mus musculus) and cynomologus monkey (macaca fascicularis) sequences (SEQ ID NOS: 38, 39, 40 and 41, respectively) was immobilized on high binding 96-well plates (Costar, USA; distributor VWR AG, Nyon, Switzerland) overnight at a concentration of 2 μg/mL at 4° C. in PBS. Plates were blocked with 2% BSA albumin (BSA, Sigma-Aldrich Chemie, Buchs, Switzerland) at RT for one hour. The blocking solution was removed and a dose dilution of 5G6 antibody was applied to the plates. Plates were incubated at RT for 60 minutes, washed six times with PBS 0.01% Tween-20 and the TMB substrate (Bio-rad Laboratories AG, Reinach, Switzerland) was added to the plates. […] The plates were read for absorbance at 450 nm by a microplate reader (Biotek, USA; distributor: WITTEC AG, Littau, Switzerland).

[4] = target: T3, extracellular part of human (homo …); assay: as above
Method: as §1

[5] = target: T4, extracellular part of cynomologus …; assay: as above
Method: as §1

EC50 (read off the curve) [1] [ng/mL] | Kd [2] [nM] | EC50 (read off the curve) [3] [ng/mL] | EC50 (read off the curve) [4] [ng/mL] | EC50 (read off the curve) [5] [ng/mL] | Binder
20 | 0.728 | ~8 | ~3 | ~3 | 5G6 chimeric antibody (murine 5G6 variable domains fused to human IgG1 heavy chain constant domains and a human kappa constant domain) (antibody, V domains shown, Human IGHG1 / kappa chimera; also called Chimera; parental 5G6) VH: QVQLQQPGSVLVRPGASVKVSCKASGYTFTSSWMHWAKQRPGQGLEWIGEIHPNSGGTNYNEKFKGKATLTVDTSSSTAYVDLSSLTSEDSAVYYCARGDYYGYVSWFAYWGQGTLVTVSS VL: DIQMNQSPSSLSASLGDTITITCHASQNINVLLSWYQQKPGNIPKLLIYKASNLHTGVPSRFSGSGSGTGFTFTISSLQPEDIATYYCQQGQSYPYTFGGGTKLEIKR
 | 0.681 |  |  |  | VH4/VL1 humanized 5G6 antibody (antibody, human IgG1, kappa, V domains shown) VH: QVQLVQSGAEVKKPGASVKVSCKASGYTFTSSWMHWARQAPGQGLEWIGEIHPNSGGTNYAQKFQGRVTMTVDTSISTAYMELSRLRSDDTAVYYCARGDYYGYVSWFAYWGQGTLVTVSS VL: DIQMTQSPSSLSASVGDRVTITCQASQNINVLLNWYQQKPGKAPKLLIYKASNLHTGVPSRFSGSGSGTDFTFTISSLQPEDIATYYCQQGQSYPYTFGQGTKLEIKR
 | 0.857 |  |  |  | VH2/VL2 humanized 5G6 antibody (antibody, human IgG1, kappa, V domains shown) VH: QVQLVQSGAEVKKPGASVKVSCKASGYTFTSSWMHWARQAPGQGLEWIGEIHPNSGGTNYAQKFQGRATLTVDTSSSTAYMELSRLRSDDTAVYYCARGDYYGYVSWFAYWGQGTLVTVSS VL: DIQMNQSPSSLSASVGDRVTITCQASQNINVLLSWYQQKPGKAPKLLIYKASNLHTGVPSRFSGSGSGTDFTFTISSLQPEDIATYYCQQGQSYPYTFGQGTKLEIKR
 | 0.249 |  |  |  | VH3/VL1 humanized 5G6 antibody (antibody, human IgG1, kappa, V domains shown) VH: QVQLVQSGAEVKKPGASVKVSCKASGYTFTSSWMHWARQAPGQGLEWIGEIHPNSGGTNYAQKFQGRATMTVDTSISTAYMELSRLRSDDTAVYYCARGDYYGYVSWFAYWGQGTLVTVSS VL: DIQMTQSPSSLSASVGDRVTITCQASQNINVLLNWYQQKPGKAPKLLIYKASNLHTGVPSRFSGSGSGTDFTFTISSLQPEDIATYYCQQGQSYPYTFGQGTKLEIKR

From patent US20140308271A1 (GLENMARK PHARMACEUTICALS S A, published 2014)
